Measurements as given in EP4714976A1 (Sunshine Lake Pharma Co., Ltd., dated 2026).
Numbering of substitutions follows the chain as printed. Read-outs that look alike come from different tables or passages of the source.

B1: 3D7 scFv displayed on phage (scFv)
scFv: QVQLQQSGAELVKPGASVKMSCKASGYTFSFYNMHWVKRTPGRGLEWIGLIYPDNGDTSYNQKFKGKATLTADTSSSTAYMQLSSLTSEDSAVYYCARGGLDYWGQGTSLTVSSGGGGSGGGGSGGGGSEIVLTQSPASLAVSLGQRATISCKASQSVDYDGDSYMNWYQQKPGQPPKLLIYGISNRFSGVPDRFSGSGSGTDFTLKISTIKPEDLGMYYCLQGTHQPYTFGGGTKLEIK
B2: 3C7-VH0-VL0 (antibody, human IgG1, kappa, V domains shown)
VH: QVQLVQSGAEVKKPGASVKVSCKASGYTFTNYYIHWVRQAPGQGLEWMGAIYPDNGDTSYNQRFKVRATLTADTSTSTVYMELSSLRSEDTAVYYCARAFTYWGQGTTVTVSS
VL: DIQMTQSPSSLSASVGDRVTITCRASENIYGALNWYQQKPGKAPKLLIYGATNLADGVPSRFSGSGSGTDFTLTISSLQPEDFATYYCQNVLSTPYTFGGGTKVEIKR
notes: humanized IgG1
B3: 3C7-VH3-VL2 (antibody, human IgG1, kappa, V domains shown)
VH: B2 VH with T28I, T30R, R38K
VL: B2 VL with R24G, Q38R, F71Y, V104L
notes: humanized IgG1
B4: 3C7-VH3-VL0 (antibody, human IgG1, kappa, V domains shown)
VH: B2 VH with T28I, T30R, R38K
VL: B2 VL
notes: humanized IgG1
B5: 3C7-VH2-VL1 (antibody, human IgG1, kappa, V domains shown)
VH: B2 VH with T28I, T30R
VL: B2 VL with R24G, F71Y, F83V
notes: humanized IgG1
B6: 3C7-VH2-VL3 (antibody, human IgG1, kappa, V domains shown)
VH: B2 VH with T28I, T30R
VL: B2 VL with R24G, Q38R, A43S, F71Y, F83V, V104L
notes: humanized IgG1
B7: 3C7-VH1-VL0 (antibody, human IgG1, kappa, V domains shown)
VH: B2 VH with T28I
VL: B2 VL
notes: humanized IgG1
B8: 3C7-VH1-VL1 (antibody, human IgG1, kappa, V domains shown)
VH: B2 VH with T28I
VL: B2 VL with R24G, F71Y, F83V
notes: humanized IgG1
B9: 3C7-VH1-VL3 (antibody, human IgG1, kappa, V domains shown)
VH: B2 VH with T28I
VL: B2 VL with R24G, Q38R, A43S, F71Y, F83V, V104L
notes: humanized IgG1
B10: 3C7-VH0-VL1 (antibody, human IgG1, kappa, V domains shown)
VH: B2 VH
VL: B2 VL with R24G, F71Y, F83V
notes: humanized IgG1
B11: 3C7-VH3-VL1 (antibody, human IgG1, kappa, V domains shown)
VH: B2 VH with T28I, T30R, R38K
VL: B2 VL with R24G, F71Y, F83V
notes: humanized IgG1
B12: 3C7-VH3-VL3 (antibody, human IgG1, kappa, V domains shown)
VH: B2 VH with T28I, T30R, R38K
VL: B2 VL with R24G, Q38R, A43S, F71Y, F83V, V104L
notes: humanized IgG1
B13: 3C7-VH0-VL2 (antibody, human IgG1, kappa, V domains shown)
VH: B2 VH
VL: B2 VL with R24G, Q38R, F71Y, V104L
notes: humanized IgG1
B14: 3C7-VH0-VL3 (antibody, human IgG1, kappa, V domains shown)
VH: B2 VH
VL: B2 VL with R24G, Q38R, A43S, F71Y, F83V, V104L
notes: humanized IgG1
B15: 3C7-VH2-VL0 (antibody, human IgG1, kappa, V domains shown)
VH: B2 VH with T28I, T30R
VL: B2 VL
notes: humanized IgG1
B16: 3B4 scFv-Fc (Fc fusion)
chain: EVQLQQSGADLVKPGASVKMSCKASGYTFSYYNMHWVRRTPGQGLEWIGLIYPDNGDTSYNQKFKGKATLTADTSSSTAYMQLSSLTSEDSAVYYCARGGLDYWGQGTTLTVSSGGGGSGGGGSGGGGSDIQMIQSPASMSASVGETVTITCGASENIYGALNWYQRKQGKSPQLLIYGATNLADGMSSRFSGSGSGRQYSLKISSLHPDDVATYYCQNVLSTPYTFGGGTKLEMKESKYGPPCPPCPAPEAAGGPSVFLFPPKPKDTLMISRTPEVTCVVVDVSQEDPEVQFNWYVDGVEVHNAKTKPREEQFNSTYRVVSVLTVLHQDWLNGKEYKCKVSNKGLPSSIEKTISKAKGQPREPQVYTLPPSQEEMTKNQVSLTCLVKGFYPSDIAVEWESNGQPENNYKTTPPVLDSDGSFFLYSKLTVDKSRWQEGNVFSCSVMHEALHNHYTQKSLSLSLG
notes: scFv-Fc dimer
B17: 3E3 scFv-Fc (Fc fusion)
chain: QVQLQQPGAVLVKPGASVRMSCKASGYTFPYYNVHWVKRTPGQGLEWIGLIYPDNGDTSYNQKFTGKATLTADTSSSTAYMQLSSLTSEDSAVYYCARGGLDYWGQGTTLTVSAGGGGSGGGGSGGGGSDVQITQSPASLSASVGETVTITCGASENIYGALNWYQRKQGKSPQLLIYGATNLADGMSSRFSGSGSGRQYSLKISSLHPDDVATYYCQNVLSTPYTFGGGTKLEIKESKYGPPCPPCPAPEAAGGPSVFLFPPKPKDTLMISRTPEVTCVVVDVSQEDPEVQFNWYVDGVEVHNAKTKPREEQFNSTYRVVSVLTVLHQDWLNGKEYKCKVSNKGLPSSIEKTISKAKGQPREPQVYTLPPSQEEMTKNQVSLTCLVKGFYPSDIAVEWESNGQPENNYKTTPPVLDSDGSFFLYSKLTVDKSRWQEGNVFSCSVMHEALHNHYTQKSLSLSLG
notes: scFv-Fc dimer
B18: 1G6 scFv-Fc (Fc fusion)
chain: EIQLQQSGAELVKPGASVKMSCKASGYTFRYYNMHWVKRTPGQGLEWIGLIYPDNGDTSYNQKFKGKATLTADTSSSTAYMQLSSLTSEDSAVYYCARGGLDYWGQGTSLTVSSGGGGSGGGGSGGGGSNIVMTQSHKFMSTSVGDRVSITCKASQDVNTDVAWYQQKPGQSPKLLIYSASYRYTGVPTRFTGSGSGTDFTFTISGVQAEDLADYYCQQHYNTPYTFGGGTKLELKESKYGPPCPPCPAPEAAGGPSVFLFPPKPKDTLMISRTPEVTCVVVDVSQEDPEVQFNWYVDGVEVHNAKTKPREEQFNSTYRVVSVLTVLHQDWLNGKEYKCKVSNKGLPSSIEKTISKAKGQPREPQVYTLPPSQEEMTKNQVSLTCLVKGFYPSDIAVEWESNGQPENNYKTTPPVLDSDGSFFLYSKLTVDKSRWQEGNVFSCSVMHEALHNHYTQKSLSLSLG
notes: scFv-Fc dimer
B19: 3A8 scFv-Fc (Fc fusion)
chain: QVQLQQSGAELVKPGASVKMSCKASGYTFTIYNIHWVRQTPGQGLEWIGLIYPDNGDTSYNQKFKAKATLTADKSSSTAYMQLSSLTSEDSAVYYCARGGFDYWGQGTSLTVSSGGGGSGGGGSGGGGSDIVMTQSQKFMSTSVGDRVSVTCKASQNVGTNVAWYQQKPGQSPKALIYSASYRYSGVPDRFTGSGSGTDFTLTISNVQAEDLADYFCQQHYSTPYTFGGGTKLEMKESKYGPPCPPCPAPEAAGGPSVFLFPPKPKDTLMISRTPEVTCVVVDVSQEDPEVQFNWYVDGVEVHNAKTKPREEQFNSTYRVVSVLTVLHQDWLNGKEYKCKVSNKGLPSSIEKTISKAKGQPREPQVYTLPPSQEEMTKNQVSLTCLVKGFYPSDIAVEWESNGQPENNYKTTPPVLDSDGSFFLYSKLTVDKSRWQEGNVFSCSVMHEALHNHYTQKSLSLSLG
notes: scFv-Fc dimer
B20: 1A3 scFv displayed on phage (scFv)
scFv: QVQLQQPGAELVKPGASVKMSCKASGYTFASYNLHWVKQTPGQGLEWIGLIYPENGDTSYNQKFKGKATLTADKSSSTAYIQLSSLTSEDSAVYFCARGGFDYWGQGTTLTVSQGGGGSGGGGSGGGGSDIQMTQSPASLSASVGETVTITCGASENIYGALNWYQRKQGKSPQLLIYGATNLADGMSSRFSGSGSGRQYSLKISSLHPDDVATYYCQNVLSTPYTFGGGTKLEIK

Experiments:
[1] = target: T1, extracellular domain of FGFR2c protein (Example 1) (UniProt P21802 22-377); experiment: phage ELISA
T1 construct: extracellular domain

FGFR2b on KATO III cells [2] = target: T2, FGFR2b on KATO III cells (human, UniProt P21802-3 22-822); experiment: flow cytometry, KATO III cells
T2 construct: whole, on cells; also called KATO III cells that overexpress FGFR2b

[3] = target: T3, human FGFR2b (Kaixia Biotechnology, catalog number FGR-HM1BB) (human, UniProt P21802-3 22-378); experiment: BLI, antibody on AHC2 sensor
T3 construct: extracellular domain; bought; also called hFGFR2b; human FGFR2b protein

[4] = target: T3, human FGFR2b (Kaixia Biotechnology, …); experiment: BLI, antibody on AHC2 sensor; remark: listed apart in the source
FGFR2b on KATO III cells [5] = target: T2, FGFR2b on KATO III cells; experiment: flow cytometry, KATO III cells; remark: listed apart in the source
[6] = target: T4, recombinant cynomolgus monkey FGFR2b (cynomolgus monkey); experiment: ELISA, antibody 1ug/mL
T4 construct: extracellular domain; bought; also called cynomolgus macaque FGFR2b

FGFR2c (acro) = FGFR2c (acro) (UniProt P21802 22-377); experiment: ELISA, antibody 10 µg/mL
[7] = target: T3, human FGFR2b (Kaixia Biotechnology, …); experiment: ELISA, FGFR2b coated at 1 µg/ml

T2 sequence (P21802 other isoform, or with tags, fused parts or gaps): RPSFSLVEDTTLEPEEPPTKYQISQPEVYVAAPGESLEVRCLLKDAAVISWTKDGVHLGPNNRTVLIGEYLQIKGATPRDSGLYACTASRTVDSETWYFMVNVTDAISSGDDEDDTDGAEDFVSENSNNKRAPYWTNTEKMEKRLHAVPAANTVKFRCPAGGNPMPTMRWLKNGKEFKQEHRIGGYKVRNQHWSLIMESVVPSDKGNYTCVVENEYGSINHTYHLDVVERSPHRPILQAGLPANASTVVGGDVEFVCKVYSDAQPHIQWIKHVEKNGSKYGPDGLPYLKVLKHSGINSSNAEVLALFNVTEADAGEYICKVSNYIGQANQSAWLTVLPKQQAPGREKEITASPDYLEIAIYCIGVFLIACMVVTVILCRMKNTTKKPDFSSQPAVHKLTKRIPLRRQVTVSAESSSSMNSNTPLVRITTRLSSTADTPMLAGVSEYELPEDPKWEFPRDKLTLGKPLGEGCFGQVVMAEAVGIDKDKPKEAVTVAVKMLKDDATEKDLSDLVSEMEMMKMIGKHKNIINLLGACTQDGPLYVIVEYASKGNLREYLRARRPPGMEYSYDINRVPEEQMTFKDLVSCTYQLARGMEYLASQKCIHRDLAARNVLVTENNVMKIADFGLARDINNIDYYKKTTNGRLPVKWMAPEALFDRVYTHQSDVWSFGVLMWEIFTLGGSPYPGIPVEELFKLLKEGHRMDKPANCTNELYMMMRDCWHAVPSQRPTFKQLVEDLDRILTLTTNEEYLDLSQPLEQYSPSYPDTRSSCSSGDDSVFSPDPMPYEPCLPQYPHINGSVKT
T3 sequence (P21802 other isoform, or with tags, fused parts or gaps): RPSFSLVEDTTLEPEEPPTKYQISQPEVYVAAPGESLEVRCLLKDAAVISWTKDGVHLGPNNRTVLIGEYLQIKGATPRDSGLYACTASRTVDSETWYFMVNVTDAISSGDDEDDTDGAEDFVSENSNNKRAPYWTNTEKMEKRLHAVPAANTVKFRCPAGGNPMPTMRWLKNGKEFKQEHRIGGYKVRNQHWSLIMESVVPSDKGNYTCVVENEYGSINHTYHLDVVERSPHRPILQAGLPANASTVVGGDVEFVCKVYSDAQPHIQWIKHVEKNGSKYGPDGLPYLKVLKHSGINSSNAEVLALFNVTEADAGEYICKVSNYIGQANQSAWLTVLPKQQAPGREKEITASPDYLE
T1 sequence (P21802 22-377): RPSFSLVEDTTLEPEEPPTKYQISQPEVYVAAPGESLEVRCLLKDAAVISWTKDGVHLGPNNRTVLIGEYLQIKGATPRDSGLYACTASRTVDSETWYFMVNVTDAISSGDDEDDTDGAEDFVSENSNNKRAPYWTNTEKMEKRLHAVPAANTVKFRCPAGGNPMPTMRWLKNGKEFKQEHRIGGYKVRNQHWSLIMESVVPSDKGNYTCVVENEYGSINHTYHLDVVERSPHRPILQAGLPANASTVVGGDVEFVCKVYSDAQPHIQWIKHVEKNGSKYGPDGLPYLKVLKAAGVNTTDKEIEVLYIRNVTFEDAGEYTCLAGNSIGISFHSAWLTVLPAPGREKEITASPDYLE
Chain of FGFR2c (acro) (P21802 22-377): as above

Binder	EC50 (FGFR2b on KATO III cells [2]) [µg/mL]	Kd [3] [nM]	koff [3] [s⁻¹]	kon [3] [M⁻¹ s⁻¹]	also measured
B1					OD (450 nm) value [1]: 0.037
B2	0.384	10.4	0.00305	293000	
B3	0.523	2.48	0.000829	334000	
B4	0.624	2.51	0.000831	331000	
B5	0.302	2.92	0.000718	246000	
B6	0.572	2.77	0.000754	272000	
B7	0.396	1.89	0.000955	504000	
B8	0.506	3.24	0.00131	405000	
B9	0.565	3.04	0.00122	403000	
B10	0.64	14	0.00315	224000	
B11	0.446	2.46	0.00106	429000	
B12	0.536	2.43	0.000777	320000	
B13	0.528	11.6	0.00313	269000	
B14	0.443	13.6	0.00323	238000	
B15	0.436	1.63	0.000829	509000	
B16					Kd [4]: 6.28 nM; koff [4]: 0.00195 s⁻¹; kon [4]: 311000 M⁻¹ s⁻¹; EC50 (FGFR2b on KATO III cells [5]): 0.168 µg/mL; OD (450 nm) value [6]: 3.32; OD (450 nm) value (FGFR2c (acro)): 0.327; EC50 [7]: 0.0166 µg/mL
B17					Kd [4]: 8.18 nM; koff [4]: 0.00184 s⁻¹; kon [4]: 225000 M⁻¹ s⁻¹; EC50 (FGFR2b on KATO III cells [5]): 0.376 µg/mL; OD (450 nm) value [6]: 3.09; EC50 [7]: 0.0273 µg/mL
B18					Kd [4]: 3.97 nM; koff [4]: 0.00149 s⁻¹; kon [4]: 374000 M⁻¹ s⁻¹; EC50 (FGFR2b on KATO III cells [5]): 0.186 µg/mL; OD (450 nm) value [6]: 3.24; EC50 [7]: 0.0235 µg/mL
B19					Kd [4]: 3.48 nM; koff [4]: 0.0009 s⁻¹; kon [4]: 259000 M⁻¹ s⁻¹; EC50 (FGFR2b on KATO III cells [5]): 0.199 µg/mL; EC50 [7]: 0.0278 µg/mL
B20					OD (450 nm) value [1]: 0.212
